These results are taken from patent US20220332804A1 (CSL INNOVATION, published 2022).

Common to all, as to experiment: SPR, antibody captured, C2 as analyte;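 note: biacore at 37 °C, anti-C2 mAbs held by immobilised goat anti-human IgG, C2 alanine or serine mutants injected, double-referenced sensorgrams fitted to a 1:1 kinetic or steady-state model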
For one assay, the target named is T1, human C2 A326S (human, UniProt P06681 21-752).
T1 sequence: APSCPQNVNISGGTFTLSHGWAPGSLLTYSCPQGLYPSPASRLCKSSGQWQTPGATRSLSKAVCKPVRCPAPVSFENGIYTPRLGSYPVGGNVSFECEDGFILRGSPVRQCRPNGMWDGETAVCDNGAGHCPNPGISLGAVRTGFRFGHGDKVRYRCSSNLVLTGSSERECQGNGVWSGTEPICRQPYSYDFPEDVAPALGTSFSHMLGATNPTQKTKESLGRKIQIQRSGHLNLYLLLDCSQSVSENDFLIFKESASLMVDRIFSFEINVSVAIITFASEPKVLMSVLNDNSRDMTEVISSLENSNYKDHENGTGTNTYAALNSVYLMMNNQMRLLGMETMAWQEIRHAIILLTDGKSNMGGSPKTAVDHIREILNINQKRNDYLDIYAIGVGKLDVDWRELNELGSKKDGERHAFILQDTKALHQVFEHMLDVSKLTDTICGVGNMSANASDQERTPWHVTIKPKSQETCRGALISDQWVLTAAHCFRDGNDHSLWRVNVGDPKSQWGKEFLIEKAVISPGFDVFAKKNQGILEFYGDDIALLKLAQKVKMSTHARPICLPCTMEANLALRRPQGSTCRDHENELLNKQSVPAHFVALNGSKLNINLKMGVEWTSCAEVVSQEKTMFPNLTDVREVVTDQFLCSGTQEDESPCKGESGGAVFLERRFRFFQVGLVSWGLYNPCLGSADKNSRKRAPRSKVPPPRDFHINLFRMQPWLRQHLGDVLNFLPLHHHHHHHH

The next assay has as its target T2, human C2 S428A (human, UniProt P06681 21-752).
T2 sequence: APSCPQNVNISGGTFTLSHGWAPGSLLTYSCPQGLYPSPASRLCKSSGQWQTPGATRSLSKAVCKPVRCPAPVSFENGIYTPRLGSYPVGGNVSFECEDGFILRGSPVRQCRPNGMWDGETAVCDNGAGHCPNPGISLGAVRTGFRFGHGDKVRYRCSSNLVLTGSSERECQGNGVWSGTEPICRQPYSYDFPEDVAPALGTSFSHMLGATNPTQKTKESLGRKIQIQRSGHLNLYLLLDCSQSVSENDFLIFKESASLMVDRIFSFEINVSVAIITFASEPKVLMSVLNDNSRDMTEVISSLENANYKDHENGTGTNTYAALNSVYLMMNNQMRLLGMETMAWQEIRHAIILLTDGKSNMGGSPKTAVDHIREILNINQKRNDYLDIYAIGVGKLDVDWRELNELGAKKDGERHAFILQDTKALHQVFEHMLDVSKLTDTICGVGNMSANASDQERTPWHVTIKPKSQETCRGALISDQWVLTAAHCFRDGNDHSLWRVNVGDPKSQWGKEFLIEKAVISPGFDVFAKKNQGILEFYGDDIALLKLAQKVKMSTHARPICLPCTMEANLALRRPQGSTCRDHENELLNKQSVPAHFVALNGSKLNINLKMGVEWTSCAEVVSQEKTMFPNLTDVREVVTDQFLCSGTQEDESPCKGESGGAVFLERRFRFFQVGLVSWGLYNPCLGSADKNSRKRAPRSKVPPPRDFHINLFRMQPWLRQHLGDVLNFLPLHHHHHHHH

Another assay addresses T3, human C2 S456A (human, UniProt P06681 21-752).
T3 sequence: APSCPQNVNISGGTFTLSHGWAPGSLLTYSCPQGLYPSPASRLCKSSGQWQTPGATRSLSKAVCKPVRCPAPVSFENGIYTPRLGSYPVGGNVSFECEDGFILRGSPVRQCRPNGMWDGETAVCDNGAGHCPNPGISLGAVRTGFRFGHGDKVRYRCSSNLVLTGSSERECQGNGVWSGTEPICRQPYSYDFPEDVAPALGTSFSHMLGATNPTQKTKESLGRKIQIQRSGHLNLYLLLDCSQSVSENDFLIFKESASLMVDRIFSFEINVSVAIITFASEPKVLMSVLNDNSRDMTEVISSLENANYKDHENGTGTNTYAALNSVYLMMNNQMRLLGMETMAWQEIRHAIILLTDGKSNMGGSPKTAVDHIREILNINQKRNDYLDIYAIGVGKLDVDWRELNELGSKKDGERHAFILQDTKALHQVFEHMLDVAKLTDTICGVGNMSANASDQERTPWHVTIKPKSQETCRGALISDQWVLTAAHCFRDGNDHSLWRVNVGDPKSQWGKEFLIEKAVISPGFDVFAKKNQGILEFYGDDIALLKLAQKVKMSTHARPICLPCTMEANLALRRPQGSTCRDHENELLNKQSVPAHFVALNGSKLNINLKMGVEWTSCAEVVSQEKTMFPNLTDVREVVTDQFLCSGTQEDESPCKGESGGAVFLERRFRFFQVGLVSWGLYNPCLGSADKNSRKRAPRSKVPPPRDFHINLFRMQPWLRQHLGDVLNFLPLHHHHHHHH

In the next assay the target is T4, human C2 R519A (human, UniProt P06681 21-752).
T4 sequence: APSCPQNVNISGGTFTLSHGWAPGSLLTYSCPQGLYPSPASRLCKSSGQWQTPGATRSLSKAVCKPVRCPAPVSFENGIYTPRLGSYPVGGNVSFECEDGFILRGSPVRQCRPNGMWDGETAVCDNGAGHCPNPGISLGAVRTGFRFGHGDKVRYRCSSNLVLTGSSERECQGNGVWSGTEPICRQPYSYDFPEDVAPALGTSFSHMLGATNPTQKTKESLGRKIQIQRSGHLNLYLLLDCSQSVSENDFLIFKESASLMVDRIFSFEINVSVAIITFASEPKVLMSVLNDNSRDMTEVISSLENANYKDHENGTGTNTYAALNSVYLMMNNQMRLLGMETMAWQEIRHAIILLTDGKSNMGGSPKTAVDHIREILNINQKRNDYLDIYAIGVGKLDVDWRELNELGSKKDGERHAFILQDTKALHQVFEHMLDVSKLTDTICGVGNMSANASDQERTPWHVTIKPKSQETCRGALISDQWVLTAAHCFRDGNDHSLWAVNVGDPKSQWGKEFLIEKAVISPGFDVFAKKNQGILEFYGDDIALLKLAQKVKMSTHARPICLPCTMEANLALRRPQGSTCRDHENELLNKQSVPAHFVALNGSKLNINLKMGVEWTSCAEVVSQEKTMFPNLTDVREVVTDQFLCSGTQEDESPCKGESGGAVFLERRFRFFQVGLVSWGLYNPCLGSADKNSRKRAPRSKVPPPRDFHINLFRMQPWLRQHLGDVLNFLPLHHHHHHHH

B1: RF16-242 (antibody, human IgG4 S228P, lambda, V domains shown)
VH: EVQLLQSGAEVKKPGESLKISCKGSGYSFTSYWIGWVRQMPGKGLEWMGIIYPGDSDTRYSPSFQGQVTISADKSISTAYLQWSSLKASDTAMYYCARRGHYGDYFDYWGQGTLVTVSS
VL: SYELTQPPSVSVSPGQTARITCSGDALPKKYAYWYHQKSGQAPVLVIYEDRRRPSEIPERFSGSSSGTMATLTITGAQVEDEGVYFCYSRDRAGNQRVFGGGTQLTVLG
notes: pH-dependent anti-C2 antibody from a phage display library
For B1, the Kd with human C2 A326S was found to be 9.9 nM; in the assay with human C2 S428A it was 18.6 nM; with human C2 S456A, 59.8 nM; with human C2 R519A, 7.6 nM.
